Where “and” joins values, the source holds several entries; their conditions need not be identical. Identical values can stand only once.
What was measured:
human CD137 ECD-mIgG2a [1] = molecular target: T1, human CD137 ECD-mIgG2a (human); test: SPR, Human CD137
T1 construct: ECD 24-183 of huCD137 fused to mouse IgG2a Fc; also called huCD137-mIgG2a; huCD137

cyno CD137 ECD-mIgG2a = molecular target: T2, cyno CD137 ECD-mIgG2a (monkey (Macaca mulatta gene; called …); test: SPR, Monkey CD137
T2 chain: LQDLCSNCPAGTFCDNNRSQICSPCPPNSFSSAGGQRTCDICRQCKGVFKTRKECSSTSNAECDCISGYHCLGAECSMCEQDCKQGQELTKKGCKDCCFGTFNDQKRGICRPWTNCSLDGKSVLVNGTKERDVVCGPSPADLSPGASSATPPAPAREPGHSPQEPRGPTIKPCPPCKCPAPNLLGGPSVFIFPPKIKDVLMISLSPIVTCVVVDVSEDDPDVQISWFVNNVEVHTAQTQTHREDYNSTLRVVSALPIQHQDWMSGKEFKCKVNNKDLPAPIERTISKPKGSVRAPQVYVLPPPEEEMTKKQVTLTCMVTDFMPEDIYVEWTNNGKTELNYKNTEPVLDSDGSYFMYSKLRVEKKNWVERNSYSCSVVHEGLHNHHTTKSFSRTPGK

[2] = molecular target: T3, full-length human CD137 on cells (Hut78/huCD137, HEK293 transfectants, JK-NFKB-CD137) (human, UniProt Q07011 24-255); test: cell-based or functional assay
T3 sequence (Q07011 24-255 limits assumed): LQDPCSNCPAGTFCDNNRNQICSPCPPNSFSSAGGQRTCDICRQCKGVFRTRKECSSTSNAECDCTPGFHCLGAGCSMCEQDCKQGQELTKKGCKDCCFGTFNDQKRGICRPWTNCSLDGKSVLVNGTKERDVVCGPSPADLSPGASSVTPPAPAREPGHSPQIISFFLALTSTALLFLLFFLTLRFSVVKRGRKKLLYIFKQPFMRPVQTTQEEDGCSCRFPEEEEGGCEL

[3] = molecular target: T3, full-length human CD137 on cells …; test: FACS on HuT78/CD137 cells
[4] = molecular target: T4, full-length human CEA on cells (MKN45, LOVO, L929/huCEA, CT26/CEA, CT26-OS8-CEA) (human, UniProt P06731 35-685); test: FACS on CT26-OS8-CEA cells
T4 construct: also called CEACAM5; native CEA
T4 sequence: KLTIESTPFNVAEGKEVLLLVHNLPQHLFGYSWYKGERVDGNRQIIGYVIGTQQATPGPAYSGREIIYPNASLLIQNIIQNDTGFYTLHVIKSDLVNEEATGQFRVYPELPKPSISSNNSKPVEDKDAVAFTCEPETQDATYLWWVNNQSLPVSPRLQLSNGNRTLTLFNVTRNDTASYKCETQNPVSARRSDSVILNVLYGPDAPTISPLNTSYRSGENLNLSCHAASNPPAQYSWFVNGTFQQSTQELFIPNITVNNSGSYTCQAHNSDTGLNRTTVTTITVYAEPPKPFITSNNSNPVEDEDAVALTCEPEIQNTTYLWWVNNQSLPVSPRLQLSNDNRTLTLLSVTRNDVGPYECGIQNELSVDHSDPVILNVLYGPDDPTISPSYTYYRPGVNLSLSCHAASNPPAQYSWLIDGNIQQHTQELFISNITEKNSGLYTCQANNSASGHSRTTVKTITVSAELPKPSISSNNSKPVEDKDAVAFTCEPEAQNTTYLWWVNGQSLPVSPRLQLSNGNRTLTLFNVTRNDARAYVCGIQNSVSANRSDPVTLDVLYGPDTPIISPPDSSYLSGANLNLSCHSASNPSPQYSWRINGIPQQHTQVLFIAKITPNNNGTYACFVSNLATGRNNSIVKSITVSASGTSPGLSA

human CD137 ECD-mIgG2a [5] = molecular target: T1, human CD137 ECD-mIgG2a; test: antigen ELISA on huCD137-mIgG2a [panel B]

Kd (human CD137 ECD-mIgG2a [1]): 36.2 nM
koff (human CD137 ECD-mIgG2a [1]): 0.00469 s⁻¹
kon (human CD137 ECD-mIgG2a [1]): 130000 M⁻¹ s⁻¹
Kd (cyno CD137 ECD-mIgG2a): 15.9 nM
koff (cyno CD137 ECD-mIgG2a): 0.00266 s⁻¹
kon (cyno CD137 ECD-mIgG2a): 167000 M⁻¹ s⁻¹
EC50 [3]: 2.26 µg/mL and 12.9 nM
EC50 [4]: 1.53 µg/mL and 8.75 nM
EC50 (read off the curve) (human CD137 ECD-mIgG2a [5]): ~0.08 µg/mL
B1: BE-146 (CEAxCD137 multispecific antibody) (bispecific antibody, human IgG1, kappa)
heavy: QVQLVQSGAEVKKPGASVKVSCKASGYIFTSYYLHWVRQAPGQGLEWIGYINPQTGKTSYAQKFQGRVTMTRDTSTSTVYMELSSLRSEDTAVYYCAREYGNYNYPLDYWGQGTLVTVSSASTKGPSVFPLAPSSKSTSGGTAALGCLVKDYFPEPVTVSWNSGALTSGVHTFPAVLQSSGLYSLSSVVTVPSSSLGTQTYICNVNHKPSNTKVDKKVEPKSCDKTHTCPPCPAPPAAGPSVFLFPPKPKDTLMISRTPEVTCVVVDVSHEDPEVKFNWYVDGVEVHNAKTKPREEQYNSTYRVVSVLTVLHQDWLNGKEYKCKVSNKALAAPIEKTISKAKGQPREPQVYTLPPSREEMTKNQVSLTCLVKGFYPSDIAVEWESNGQPENNYKTTPPVLDSDGSFFLYSKLTVDKSRWQQGNVFSCSVMHEALHNHYTQKSLSLSPGKGGGGSEVQLLESGGGLVQPGGSLRLSCAASGFTVSAEDVGWVRQAPGKGLEWVSAILDKGGSTYYAESVKGRFTISRDNAKNTLYLQMSSLRAEDTAVYYCARIVYHAGGGVTFDTRGQGTQVTVSS
light: DIQMTQSPSSLSASVGDRVTITCRASENQYGYLAWYQQKPGKVPKLLIYNYKNLVEGVPSRFSGSGSGTDFTLTISSLQPEDVATYYCQHHLGTPYTFGQGTKVEIKRTVAAPSVFIFPPSDEQLKSGTASVVCLLNNFYPREAKVQWKVDNALQSGNSQESVTEQDSKDSTYSLSSTLTLSKADYEKHKVYACEVTHQGLSSPVTKSFNRGEC
notes: Module ratio 2:2, Fc null version of huIgG1; copies: 2 + 2
NF-kB luciferase reporter in JK-NFKB-CD137 cells co-cultured with CT26-OS8-CEA, EC50 [2]: 0.51 µg/mL and 2.91 nM and 0.56 µg/mL and 3.2 nM

Source: patent US20240190989A1 (BEIGENE SWITZERLAND, published 2024)
